{"source": "paper PMC2199960", "key": {"[1]": {"molecular_target": "collagen I from rat tail (rat) (UniProt P02454)", "sequence (P02454 152-1207, chain 1 of 2)": "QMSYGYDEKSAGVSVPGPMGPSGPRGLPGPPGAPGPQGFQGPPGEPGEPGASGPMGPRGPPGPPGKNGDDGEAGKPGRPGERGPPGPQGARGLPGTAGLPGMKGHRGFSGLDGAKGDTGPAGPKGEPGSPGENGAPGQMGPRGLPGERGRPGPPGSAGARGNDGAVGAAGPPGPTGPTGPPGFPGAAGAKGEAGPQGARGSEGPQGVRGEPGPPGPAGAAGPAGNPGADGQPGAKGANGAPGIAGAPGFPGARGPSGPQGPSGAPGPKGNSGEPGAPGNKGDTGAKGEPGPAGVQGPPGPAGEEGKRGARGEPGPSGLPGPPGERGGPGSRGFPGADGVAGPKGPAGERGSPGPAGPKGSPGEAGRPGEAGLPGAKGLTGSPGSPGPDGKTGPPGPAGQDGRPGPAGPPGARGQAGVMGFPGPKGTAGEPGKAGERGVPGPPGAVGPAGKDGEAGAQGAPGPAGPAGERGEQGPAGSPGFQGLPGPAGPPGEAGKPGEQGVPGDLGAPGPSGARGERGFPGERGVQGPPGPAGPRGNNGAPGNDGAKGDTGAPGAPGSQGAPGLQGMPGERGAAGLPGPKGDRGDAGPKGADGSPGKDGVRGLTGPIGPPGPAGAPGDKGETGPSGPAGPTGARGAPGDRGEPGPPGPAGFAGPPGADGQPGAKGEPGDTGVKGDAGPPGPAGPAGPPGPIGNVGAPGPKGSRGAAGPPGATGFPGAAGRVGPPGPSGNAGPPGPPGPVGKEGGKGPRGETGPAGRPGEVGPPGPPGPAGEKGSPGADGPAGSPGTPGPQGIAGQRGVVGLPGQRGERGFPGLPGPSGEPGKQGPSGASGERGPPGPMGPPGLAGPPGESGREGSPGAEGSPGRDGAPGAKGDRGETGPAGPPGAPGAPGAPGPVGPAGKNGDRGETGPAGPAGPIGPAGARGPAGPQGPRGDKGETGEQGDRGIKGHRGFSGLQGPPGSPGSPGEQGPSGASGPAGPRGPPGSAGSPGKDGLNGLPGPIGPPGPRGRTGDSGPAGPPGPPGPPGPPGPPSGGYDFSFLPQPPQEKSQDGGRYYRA", "sequence (P02466 86-1125, chain 2 of 2, further chain)": "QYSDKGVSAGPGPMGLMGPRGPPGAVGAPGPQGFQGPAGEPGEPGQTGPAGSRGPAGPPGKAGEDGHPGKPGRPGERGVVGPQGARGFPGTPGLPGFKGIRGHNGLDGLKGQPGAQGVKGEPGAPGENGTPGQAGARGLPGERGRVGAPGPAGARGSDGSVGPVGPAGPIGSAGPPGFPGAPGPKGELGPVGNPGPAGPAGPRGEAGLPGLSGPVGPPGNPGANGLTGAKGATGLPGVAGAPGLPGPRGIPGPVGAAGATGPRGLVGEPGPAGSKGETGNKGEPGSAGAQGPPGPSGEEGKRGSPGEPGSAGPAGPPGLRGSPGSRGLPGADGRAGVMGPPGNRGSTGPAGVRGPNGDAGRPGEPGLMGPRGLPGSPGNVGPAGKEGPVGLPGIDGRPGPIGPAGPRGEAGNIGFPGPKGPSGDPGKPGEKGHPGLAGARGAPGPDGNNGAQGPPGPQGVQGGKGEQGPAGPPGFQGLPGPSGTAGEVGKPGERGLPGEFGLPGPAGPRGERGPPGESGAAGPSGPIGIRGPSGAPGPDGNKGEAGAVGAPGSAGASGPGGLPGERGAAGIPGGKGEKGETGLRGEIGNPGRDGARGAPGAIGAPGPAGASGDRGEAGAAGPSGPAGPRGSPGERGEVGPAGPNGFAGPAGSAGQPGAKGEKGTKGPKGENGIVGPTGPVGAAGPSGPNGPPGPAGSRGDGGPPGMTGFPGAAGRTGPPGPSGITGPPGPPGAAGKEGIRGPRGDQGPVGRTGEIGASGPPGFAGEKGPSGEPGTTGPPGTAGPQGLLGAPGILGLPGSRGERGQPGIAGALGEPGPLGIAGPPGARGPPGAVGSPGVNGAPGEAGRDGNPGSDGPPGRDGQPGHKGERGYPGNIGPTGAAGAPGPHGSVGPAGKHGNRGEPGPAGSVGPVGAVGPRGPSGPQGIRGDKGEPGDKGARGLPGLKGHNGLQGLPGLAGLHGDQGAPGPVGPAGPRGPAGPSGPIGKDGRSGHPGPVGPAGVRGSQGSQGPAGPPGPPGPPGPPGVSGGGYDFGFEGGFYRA", "assay": "co-sedimentation"}, "[2]": {"molecular_target": "NC3 domain of the small collagen XII subunit (190 kD) (chick)", "assay": "two-dimensional SDS-PAGE"}, "[3]": {"molecular_target": "collagen XII, small variant (small subunit, 220 kD) (chick)", "assay": "electron microscopy + nonreducing SDS-PAGE"}, "[4]": {"molecular_target": "collagen XII, small variant (small subunit, 220 kD) (chick)", "assay": "electron microscopy"}}}
{"substance": "NC3 domain of the large collagen XII subunit (290 kD), collagenase-treated collagen XII (domain or fragment)", "values": [{"measurement": "percent of truncated collagen XII in the pellet (90 mM NaCl, 30 mM phosphate)", "setting": "[1]", "result": 20, "unit": "%"}]}
{"substance": "NC3 domain of the small collagen XII subunit (190 kD) (domain or fragment)", "values": [{"measurement": "stoichiometry N", "setting": "[2]", "result": 3}]}
{"substance": "collagen XII, small variant (small subunit, 220 kD) (natural protein)", "values": [{"measurement": "stoichiometry N", "setting": "[3]", "result": 3}, {"measurement": "stoichiometry N", "setting": "[4]", "result": 3}]}
